Measured values reported in patent publication US20090202508A1, “NEGATIVE REGULATION OF HYPOXIA INDUCIBLE FACTOR 1 BY OS-9” (THE JOHNS HOPKINS UNIVERSITY, priority 2004, published 2009).

Tested on: HIF-1α
Experiment: In vitro interaction (GST pull-down) assay of OS-9 with GST-HIF-1α fusion proteins
Format: binding, human
Conditions: FIG. 2A
Method: To prepare GST fusion proteins, E. coli BL21-Gold(DE3)pLysS (Stratagene) was transformed with a pGEX expression vector and treated for 4 h with 0.5 mM isopropyl-D-thiogalactoside. Pelleted cells were lysed by sonication in PBS containing 1% Triton X-100 and Complete protease inhibitor cocktail (Roche). After centrifugation, supernatants were applied to glutathione-Sepharose 4B beads (Amersham Pharmiacia Biotech). GST fusion proteins were eluted with 10 mM reduced glutathione in 50 mM Tris-HCl (pH 8.0) and stored at −80° C. The concentration and purity of eluates were determined by the Bradford method and by SDS-PAGE. [^35S]methionine-labeled proteins were generated in reticulocyte lysates with plasmids encoding HA-OS-9 or FLAG-VHL using the TNT T7 coupled transcription/translation system (Promega). Ten μl of in vitro-translated ^35S-labeled protein was mixed with 4 μg of GST or GST-HIF-1α fusion protein (Mahon et al. 2001) in a final volume of 200 μof PBS-T binding buffer (Dulbecco's PBS [pH 7.4], 0.1% Tween-20). The binding reaction was performed at 4° C. for 2 h with rotation followed by the addition of […] pre-washed glutathione-Sepharose 4B beads. After 30 min of mixing on a rotator, the beads were washed three times with PBS-T. Proteins were eluted in Laemmli sample buffer and analyzed by SDS-PAGE followed by autoradiography.

B1: OS-9: human OS-9 protein (667-residue isoform), HA-tagged, from expression vector or in vitro-translated (protein)
chain: MAAETLLSSLLGLLLLGLLLPASLTGGVGSLNLEELSEMRYGIEILPLPVMGGQSQSSDVVIVSSKYKQRYECRLPAGAIHFQREREEETPAYQGPGIPELLSPMRDAPCLLKTKDWWTYEFCYGRHIQQYHMEDSEIKGEVLYLGYYQSAFDWDDETAKASKQHRLKRYHSQTYGNGSKCDLNGRPREAEVRFLCDEGAGISGDYIDRVDEPLSCSYVLTIRTPRLCPHPLLRPPPSAAPQAILCHPSLQPEEYMAYVQRQADSKQYGDKIIEELQDLGPQVWSETKSGVAPQKMAGASPTKDDSKDSDFWKMLNEPEDQAPGGEEVPAEEQDPSPEAADSASGAPNDFQNNVQVKVIRSPADLIRFIEELKGGTKKGKPNIGQEQPVDDAAEVPQREPEKERGDPERQREMEEEEDEDEDEDEDEDERQLLGEFEKELEGILLPSDRDRLRSEVKAGMERELENIIQETEKELDPDGLKKESERDRAMLALTSTLNKLIKRLEEKQSPELVKKHKKKRVVPKKPPPSPQPTEEDPEHRVRVRVTKLRLGGPNQDLTVLEMKRENPQLKQIEGLVKELLEREGLTAAGKIEIKIVRPWAEGTEEGARWLTDEDTRNLKEIFFNILVPGAEEAQKERQRQKELESNYRRVWGSPGGEGTGDLDEFDF
modifications: left off: small tags and cut ends
notes: human OS-9 protein (667-residue isoform), HA-tagged, from expression vector or in vitro-translated
- binding of OS-9 to GST-HIF-1α (HIF-1α residues 1-329, 429-608, 531-610, and 786-826): did not bind
- binding of OS-9 to GST-HIF-1α (HIF-1α residues 531-826, 653-826, or 692-826): efficiently bound
